Assay results taken from PMC4218836 (2014).
Residue numbers refer to the chain shown, from its start.

B1: scFvE3 (soluble, in fusion with the N-terminal domain of the phage P3 protein) (scFv, V domains shown)
VH: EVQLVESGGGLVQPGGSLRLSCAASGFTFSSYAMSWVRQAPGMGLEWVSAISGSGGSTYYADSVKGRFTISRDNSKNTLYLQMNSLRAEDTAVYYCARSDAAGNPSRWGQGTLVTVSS
VL: SSELTQDPAVSVALGQTVRITCQGDSLRSYYTSWYQQKPGQAPVRVIYGKNNRPSGVPDRFSGSSSGNTASLTITGAQAEDEADYYCNSRDSSGNHAYVFGGGTKLTVL
B2: scFvD10 (soluble, in fusion with the N-terminal domain of the phage P3 protein) (scFv, V domains shown)
VH: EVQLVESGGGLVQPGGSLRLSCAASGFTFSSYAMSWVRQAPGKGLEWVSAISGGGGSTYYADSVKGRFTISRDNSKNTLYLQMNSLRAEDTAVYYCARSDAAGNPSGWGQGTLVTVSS
VL: B1 VL with T32A, R45L, V57I
B3: scFvA5 (soluble, in fusion with the N-terminal domain of the phage P3 protein) (scFv, V domains shown)
VH: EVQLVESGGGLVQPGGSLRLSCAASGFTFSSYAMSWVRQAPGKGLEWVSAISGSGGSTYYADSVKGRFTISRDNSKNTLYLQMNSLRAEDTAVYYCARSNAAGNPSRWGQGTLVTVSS
VL: B1 VL with T32A, R45L, V57I
B4: scFvF7 (soluble, in fusion with the N-terminal domain of the phage P3 protein) (scFv, V domains shown)
VH: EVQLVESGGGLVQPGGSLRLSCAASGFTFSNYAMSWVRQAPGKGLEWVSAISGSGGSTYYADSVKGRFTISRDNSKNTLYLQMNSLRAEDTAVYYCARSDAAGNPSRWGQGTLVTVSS
VL: B1 VL with T32A, R45L, V57I, S89T

Key:
GST-RhoAL63 [1] = target: T1, GST-RhoAL63 (UniProt P61586 1-193, L63); test: SPR
GST-RhoBL63 [2] = target: T2, GST-RhoBL63 (UniProt P62745 1-196, L63); test: SPR
GST-RhoAL63 [3] = target: T1, GST-RhoAL63; test: SPR; remark: listed apart in the source
GST-RhoBL63 [4] = target: T2, GST-RhoBL63; test: SPR; remark: listed apart in the source
6xHis-RhoAL63 = 6xHis-RhoAL63 (UniProt P61586 1-193, L63); test: ELISA
6xHis-RhoBL63 = 6xHis-RhoBL63 (UniProt P62745 1-196, L63); test: ELISA
6xHis-RhoBL63, sequence (P62745 other isoform, or with tags, fused parts or gaps L63): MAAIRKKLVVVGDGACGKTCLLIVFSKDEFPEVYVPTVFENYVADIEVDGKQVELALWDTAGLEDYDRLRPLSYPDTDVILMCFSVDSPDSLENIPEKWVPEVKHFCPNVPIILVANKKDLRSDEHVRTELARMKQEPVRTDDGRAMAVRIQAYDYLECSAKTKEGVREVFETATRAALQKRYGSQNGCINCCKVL

T1 sequence (P61586 other isoform, or with tags, fused parts or gaps L63): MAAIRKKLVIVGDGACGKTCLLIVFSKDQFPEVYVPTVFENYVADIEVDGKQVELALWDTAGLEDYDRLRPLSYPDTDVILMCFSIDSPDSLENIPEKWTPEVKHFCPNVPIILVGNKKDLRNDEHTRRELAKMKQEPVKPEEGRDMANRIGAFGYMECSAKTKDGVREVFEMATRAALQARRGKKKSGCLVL
T2 sequence (P62745 other isoform, or with tags, fused parts or gaps L63): as the sequence (P62745 other isoform, or with tags, fused parts or gaps L63) above
6xHis-RhoAL63, sequence (P61586 other isoform, or with tags, fused parts or gaps L63): as the sequence (P61586 other isoform, or with tags, fused parts or gaps L63) above

| Binder | koff (GST-RhoAL63 [1]) [s⁻¹] | koff (GST-RhoBL63 [2]) [s⁻¹] | Kd (GST-RhoAL63 [3]) [nM] | Kd (GST-RhoBL63 [4]) [nM] | Kd (6xHis-RhoAL63) [nM] | Kd (6xHis-RhoBL63) [nM] |
| --- | --- | --- | --- | --- | --- | --- |
| B1 | 0.0176 | 0.000683 | 36.9 | 3.14 |  |  |
| B2 | 0.00297 |  | 39.6 |  |  |  |
| B3 |  |  |  |  | 24.5 | 24 |
| B4 | 0.000248 | 0.000414 | 2.35 | 3.39 |  |  |
